# Like-named read-outs stand apart in the source and are kept apart here.
# T1: hNPDC1(35-181) (human, UniProt Q9NQX5 35-181)
# T1 construct: range 35-181; also called neural proliferation differentiation and control protein 1
# T1 sequence (looked up): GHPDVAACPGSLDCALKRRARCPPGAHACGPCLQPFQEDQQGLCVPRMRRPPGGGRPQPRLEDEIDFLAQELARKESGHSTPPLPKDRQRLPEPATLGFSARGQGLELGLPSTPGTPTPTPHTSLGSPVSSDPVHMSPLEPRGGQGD
# T2: hPANP(76-178) (human, UniProt Q8IYJ0 76-178)
# T2 construct: range 76-178; also called PIANP; PILRA-associated neural protein
# T2 sequence (looked up): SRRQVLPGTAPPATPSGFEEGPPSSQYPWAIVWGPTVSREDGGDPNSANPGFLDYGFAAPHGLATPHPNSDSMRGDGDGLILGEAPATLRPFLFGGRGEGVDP
# B1: Anti-PILRA antibody clone 2 (antibody, human IgG1, kappa, L234A L235A, V domains shown)
# VH: EVQLVESGGGLVQPGRSLRLSCAVSGFTFDDYAMHWVRQAPGKGLEWVSGFSWNSGSIGYPDSVKGRFTISRDNAKNSLYLQMNSLRAEDTAFYYCAKDKSISAAGRFDYWGQGTLVTVSS
# VL: DIQMTQSPSSLSASVGDRVTITCQASRRINNYLNWYQQKPGKAPKLLIYDASNLETGVPSRFTGSGSGTDFTLTISSLQPEDIATYYCQQYDNLPLTFGGGTKVEIKR
# notes: also called Ab; Clone 2; Ab.2
# B2: Anti-PILRA antibody clone 6 (antibody, V domains shown)
# VH: EVQLQQSGPELQRPGASVKLSCKASGYTFTEYYMYWVKQRPKQGLELIGRIDPEDGGTDYIEKFKNKATLTADTSSNTAYMQLSSLTSEDTATYFCATTIRGTVFAFWGQGTLVTVSS
# VL: DIQMTQSPASLSASLGETVTIECRASEDIFNGLAWYQQKPGKSPHLLIYNAKTLHTGVPSRFSGSGSGSQYSLKINSLQSEDVASYFCQQYYDYPLTFGSGTKLEIK
# notes: the printed lines of the VL are out of order there
# B3: Anti-PILRA antibody clone 7 (antibody, V domains shown)
# VH: EVQLQQSGPELQRPGASVKLSCKASGYTFTEYYMYWVKQRPKQGLELMGRIDPEDGGTDYVEKFKNKATLTADTSSNTAYMQLSSLTSEDTATYFCASTIRGTVFVYWGQGTLVTVSS
# VL: DIQMTQSPASLSASLGETVTIECRPSEDIYNGLAWYQQKPGESPQLLIYNANSLHTGVPSRFSGSGSGTQYSLKINSLQSEDVASYFCQQYYDYPLTFGSGTKLEIK
# B4: Anti-PILRA antibody clone 12 (antibody, V domains shown)
# VH: EVQLVQSGAEVKKPGASVKVSCKASGYTFTEYYMYWVRQAPGQGLELIGRIDPEDGGTDYIEKFKNRVTITADTSTSTAYLELSSLRSEDTAVYYCATTIRGTVFAFWGQGTLVTVSS
# VL: DIQMTQSPSSLSASVGDRVTITCRASEDIFNGLAWYQQKPGKSPKLLIYNAKTLHTGVPSRFSGSGSGSDYTLTISSLQPEDFATYFCQQYYDYPLTFGQGTKVEIK
# notes: Humanized; also called Ab.12
# B5: Anti-PILRA antibody clone 35 (antibody, V domains shown)
# VH: EVQLVQSGAEVKKPGASVKVSCKASGYTFTEYYMYWVRQAPGQGLELIGRIDPEDGGTDYVEKFKNRATLTADTSTSTAYLELSSLRSEDTAVYFCASTIRGTVFVYWGQGTLVTVSS
# VL: DIQMTQSPSSLSASVGDRVTITCRPSEDIYNGLAWYQQKPGKSPKLLIYNANSLHTGVPSRFSGSGSGTDYTLTISSLQPEDFATYFCQQYYDYPLTFGQGTKVEIK
# notes: Humanized; also called Ab.35
# B6: human PILRA G78 extracellular domain (recombinant hPILRA ECD) (receptor)
# chain: QPSGSTGSGPSYLYGVTQPKHLSASMGGSVEIPFSFYYPWELATAPDVRISWRRGHFHGQSFYSTRPPSIHKDYVNRLFLNWTEGQKSGFLRISNLQKQDQSVYFCRVELDTRSSGRQQWQSIEGTKLSITQAVTTTTQRPSSMTTTWRLSSTTTTTGLRVTQGKRRSDSWHISLETA
# notes: also called hPILRA G78
# B7: PILRB binding positive control antibody (antibody, human IgG1, kappa, L234A L235A, V domains shown)
# VH: QVQLQESGPGLVKPSGTLSLTCAVSGGSISSNHWWSWVRQPPGKGLEWIGEIYHYGTTDYNPSLQSRVTISVDKSKNQFSLKLTSVTAADTAVYFCARGLRDYYYYMDVWGKGTTVTVSS
# VL: DIQMTQSPSSLSASVGDRVTITCRASQTISSYLNWYQQKPGKAPKLLIYAASSLQSGVPSRFSGSGFGTDFTLTISSLQPEDFATYYCQQSYSIPLTFGGGTKVEIKR
# Columns and labels:
# human PILRA G78 on cells [1] = target: T3, human PILRA G78 on cells (human, UniProt Q9UKJ1 20-303); test: cell-based or functional assay
# Target sequence in this assay (Q9UKJ1 20-303 R78G limits assumed): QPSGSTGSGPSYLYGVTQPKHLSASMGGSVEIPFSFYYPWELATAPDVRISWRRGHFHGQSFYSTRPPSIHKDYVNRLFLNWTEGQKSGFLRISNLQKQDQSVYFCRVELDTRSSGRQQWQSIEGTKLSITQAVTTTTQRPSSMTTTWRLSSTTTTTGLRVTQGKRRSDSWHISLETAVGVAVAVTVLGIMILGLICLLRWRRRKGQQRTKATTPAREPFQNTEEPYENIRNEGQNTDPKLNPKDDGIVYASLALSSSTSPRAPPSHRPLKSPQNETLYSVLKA
# [2] = target: T4, human PILRB extracellular domain (recombinant) (human, UniProt Q9UKJ0 20-191); test: SPR, Biacore 8K, recombinant ECD
# T4 construct: also called hPILRB
# Experimental: (§1) Antibodies were captured on Biacore™ Series S CM5 sensor chips immobilized with mouse anti-human Fab (human Fab capture kit from GE Healthcare) followed by injections of serial 3-fold dilutions of recombinant ECD reagents at a flow rate of 30 μL/min. Each sample was analyzed using a 3-minute association followed by a 10-minute dissociation. After each injection, the sensor chip was regenerated using a 5 0 mM glycine pH2.0 regeneration buffer. A 1:1 Languir model of simultaneous fitting of kₒₙ and koff was used for kinetics analysis.
# [3] = target: T5, human PILRA R78 extracellular domain (recombinant) (human, UniProt Q9UKJ1 20-197); test: SPR, Biacore 8K; antibody captured via anti-human Fab, recombinant ECD injected; 1:1 fit;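 note: CM5 sensor chip, ECD analyte in threefold dilution series at 30 µL/min, 3 min association and 10 min dissociation, kon and koff fitted simultaneously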
# T5 construct: also called hPILRA R78
# Experimental: as §1
# [4] = target: B6; test: as above
# Experimental: as §1
# [5] = target: T6, cynomolgus monkey PILRA extracellular domain (recombinant) (cynomolgus monkey); test: as above
# T6 construct: also called cynoPILRA; Cyno PILRA
# Experimental: as §1
# human PILRA G78 on cells [6] = target: T3, human PILRA G78 on cells; test: flow cytometry on HEK293 cells expressing hPILRA G78
# Target sequence in this assay (Q9UKJ1 20-303 R78G limits assumed): as above
# Experimental: Parental HEK293 cells were labeled with NucBlue Live ReadyProbes Reagent for 30 mins. […] Antibody binding to the cells was detected by FACS and median fluorescence intensity (MFI) was derived from data analysis performed with the FLOJO software (FIGS. 1A-1C).
# human PILRA R78 on cells [7] = target: T7, human PILRA R78 on cells (human, UniProt Q9UKJ1 20-303); test: flow cytometry on PILRA R78 expressing HEK293 cells (FIG. 1F); flow cytometry titration on HEK293 cells overexpressing PILRA R78
# T7 construct: also called hPILRA R78; PILRA 78R
# Experimental: (§2) PILRA G78 or R78 overexpressing HEK293 cells were stained with NucBlue Live cell stain for 30 mins at RT. […] Cell lines were run in duplicate to account for intra-variability, for a total of N=3. The same protocol was used for CHO-K1 cells expressing hPILRA G78.
# human PILRA G78 on cells [8] = target: T3, human PILRA G78 on cells; test: cell-based or functional assay; remark: listed apart in the source
# Target sequence in this assay (Q9UKJ1 20-303 R78G limits assumed): as above
# human PILRA G78 on cells [9] = target: T3, human PILRA G78 on cells; test: flow cytometry on PILRA G78 expressing CHO-K1 cells (FIG. 1H)
# Target sequence in this assay (Q9UKJ1 20-303 R78G limits assumed): as above
# Experimental: as §2
# human PILRA R78 on cells [10] = target: T7, human PILRA R78 on cells; test: cell-based or functional assay
# Target sequence in this assay (Q9UKJ1 20-303 limits assumed): as the sequence (Q9UKJ1 20-303 R78G limits assumed) above, with G59R counted along it
# human PILRA G78 on cells [11] = target: T3, human PILRA G78 on cells; test: flow cytometry on HEK293 PILRA G78 cells without sialidase treatment
# Experimental: (§3) PILRA 78G or PILRA 78R expressing HEK293 cells were treated with SialEXO (Genovis). […] It is a combination of two sialidases acting on α2-3, α2-6 and α2-8 linkages. […] Cells were then washed twice and incubated and stained with NucBlue Live Stain for 30 mins at RT.
# human PILRA R78 on cells [12] = target: T7, human PILRA R78 on cells; test: flow cytometry on HEK293 PILRA R78 cells with sialidase treatment; with sialidase treatment
# Target sequence in this assay (Q9UKJ1 20-303 limits assumed): as the sequence (Q9UKJ1 20-303 R78G limits assumed) above, with G59R counted along it
# Experimental: as §3
# (§4) Following the same protocol, sialidase treatment was also performed on HEK cells expressing PILRA R78.
# [13] = target: T4, human PILRB extracellular domain …; test: SPR, Biacore 8K; antibody captured via anti-human Fab, recombinant ECD injected; 1:1 fit;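 note: CM5 sensor chip, ECD analyte in threefold dilution series at 30 µL/min, 3 min association and 10 min dissociation, kon and koff fitted simultaneously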
# Experimental: as §1
# human PILRA R78 on cells [14] = target: T7, human PILRA R78 on cells; test: flow cytometry on PILRA R78 expressing HEK293 cells (FIG. 1F); HEK293 cells expressing PILRA R78
# Target sequence in this assay (Q9UKJ1 20-303 limits assumed): as the sequence (Q9UKJ1 20-303 R78G limits assumed) above, with G59R counted along it
# Experimental: as §2
# human PILRA R78 on cells [15] = target: T7, human PILRA R78 on cells; test: flow cytometry on HEK293 PILRA R78 cells without sialidase treatment; without sialidase treatment
# Target sequence in this assay (Q9UKJ1 20-303 limits assumed): as the sequence (Q9UKJ1 20-303 R78G limits assumed) above, with G59R counted along it
# Experimental: as §3, §4
# human PILRA G78 on cells [16] = target: T3, human PILRA G78 on cells; test: flow cytometry on HEK293 PILRA G78 cells with sialidase treatment
# Experimental: as §3
# human PILRA G78 on cells [17] = target: T3, human PILRA G78 on cells; test: flow cytometry on PILRA G78 expressing HEK293 cells (FIG. 1D); HEK293 cells expressing PILRA G78
# Experimental: as §2
# [18] = target: T4, human PILRB extracellular domain …; test: SPR
# [19] = target: T5, human PILRA R78 extracellular domain …; test: SPR
# Target sequence in this assay (Q9UKJ1 20-197 limits assumed): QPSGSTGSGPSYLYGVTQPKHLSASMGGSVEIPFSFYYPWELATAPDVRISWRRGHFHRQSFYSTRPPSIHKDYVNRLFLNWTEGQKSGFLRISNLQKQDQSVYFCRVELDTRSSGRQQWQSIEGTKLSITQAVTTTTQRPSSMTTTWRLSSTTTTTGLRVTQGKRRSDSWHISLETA
# [20] = target: B6; test: SPR
# [21] = target: T6, cynomolgus monkey PILRA extracellular …; test: SPR
# [22] = target: B6; test: SPR, Biacore 8K; hPILRA ECD; antibody with wild-type Fc
# Experimental: as §1
# Characterization for binding affinities of the humanized antibodies to hPILRA ECD were measured by SPR using a Biacore 8K instrument (Table 7).
# human PILRA G78 on cells [23] = target: T3, human PILRA G78 on cells; test: flow cytometry on HEK293 cells expressing hPILRA G78; remark: listed apart in the source
# Target sequence in this assay (Q9UKJ1 20-303 R78G limits assumed): as the sequence (Q9UKJ1 20-303 R78G limits assumed) above
# human PILRA R78 on cells [24] = target: T7, human PILRA R78 on cells; test: flow cytometry on PILRA R78 expressing HEK293 cells (FIG. 1F)
# Experimental: as §2
# human PILRA G78 on cells [25] = target: T3, human PILRA G78 on cells; test: flow cytometry (MFI), CHO-K1 cells expressing hPILRA G78, Alexa Fluor 647 anti-human IgG
# Experimental: as §2
# hNPDC1(35-181) = target: T1, hNPDC1(35-181); test: SPR (Biacore 8K): ligand injected over hPILRA ECD (300 nM) held by an anti-PILRA antibody captured on anti-human Fab; panel Ligand binding permitted, antibody not named
# hPANP(76-178) = target: T2, hPANP(76-178); test: as above
# human PILRB on cells = target: T8, human PILRB on cells (human, UniProt Q9UKJ0 20-227); test: flow cytometry on hPILRB-DAP12 OE HEK293 cells
# T8 construct: Expressed on CHO-K1 cells, or together with DAP12 on HEK293 cells (hPILRB-DAP12 OE HEK293); also called hPILRB; hPILRB-DAP12
# T8 sequence (Q9UKJ0 20-227 limits assumed): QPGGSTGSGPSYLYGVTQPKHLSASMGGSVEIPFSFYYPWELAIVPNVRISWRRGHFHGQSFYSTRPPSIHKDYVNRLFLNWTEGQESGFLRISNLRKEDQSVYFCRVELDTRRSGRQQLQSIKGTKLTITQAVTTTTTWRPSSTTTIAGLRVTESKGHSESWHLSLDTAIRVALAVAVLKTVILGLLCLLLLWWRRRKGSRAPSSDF
# Experimental: Human PILRB-DAP12 OE HEK293 cells were stained with NucBlue Live cell stain for 30 mins at RT. […] Cell lines were run in duplicates to account for intra-variability, for a total of N=3.
# T4 sequence (Q9UKJ0 20-191 limits assumed): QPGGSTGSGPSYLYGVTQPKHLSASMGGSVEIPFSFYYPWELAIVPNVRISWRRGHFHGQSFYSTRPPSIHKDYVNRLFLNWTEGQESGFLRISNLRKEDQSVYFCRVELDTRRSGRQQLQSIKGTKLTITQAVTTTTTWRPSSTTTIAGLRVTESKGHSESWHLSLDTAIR
# T6 sequence (chain, as listed by the source limits assumed): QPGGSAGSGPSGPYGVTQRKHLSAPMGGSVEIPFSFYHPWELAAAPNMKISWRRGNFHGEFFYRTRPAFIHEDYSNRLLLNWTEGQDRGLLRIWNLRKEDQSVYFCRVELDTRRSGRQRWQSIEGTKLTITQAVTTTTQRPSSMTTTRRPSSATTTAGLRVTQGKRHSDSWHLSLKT
Binder,Kd [3] [nM],Kd [4] [nM],EC50 (human PILRA G78 on cells [6]) [nM],"pSTAT3 S727 induction, EC50 (nM) (human PILRA G78 on cells [8])","pSTAT3 Y705 induction, EC50 (nM) (human PILRA G78 on cells [8])",EC50 (human PILRA G78 on cells [9]) [nM],"pSTAT3 S727 induction, EC50 (nM) (human PILRA R78 on cells [10])","pSTAT3 Y705 induction, EC50 (nM) (human PILRA R78 on cells [10])",EC50 (human PILRA R78 on cells [14]) [nM],"pSTAT3 S727 induction, Fold Over Background (human PILRA G78 on cells [8]) [fold]","pSTAT3 Y705 induction, Fold Over Background (human PILRA G78 on cells [8]) [fold]","pSTAT3 S727 induction, Fold Over Background (human PILRA R78 on cells [10]) [fold]","pSTAT3 Y705 induction, Fold Over Background (human PILRA R78 on cells [10]) [fold]",further results
B1,270,0.69,12.5,,,,,,,,,,,"pSTAT3 Y705 induction, EC50 (nM) (human PILRA G78 on cells [1]): 1.45 nM; pSTAT3 Y705 induction, Fold Over Background (human PILRA G78 on cells [1]): 16 fold; binding result [2]: no binding; Kd [5]: 1.7 nM; EC50 (human PILRA R78 on cells [7]): 5.1 nM"
B2,9.6,0.72,9.3,16,12.1,7.6,7.13,3.18,2,,,,,EC50 (human PILRA G78 on cells [11]): 13 nM; EC50 (human PILRA R78 on cells [12]): 0.3 nM; Kd [13]: 90 nM; EC50 (human PILRA R78 on cells [15]): 0.7 nM; EC50 (human PILRA G78 on cells [16]): 4.8 nM
B3,17,1.2,13,18.6,13,10,10.7,5.38,2.5,26.6,32.5,28.9,38.3,EC50 (human PILRA G78 on cells [17]): 12.9 nM; EC50 (human PILRA G78 on cells [11]): 9.5 nM; EC50 (human PILRA R78 on cells [12]): 0.3 nM; Kd [13]: 250 nM; Kd [5]: 4.8 nM; EC50 (human PILRA R78 on cells [15]): 0.7 nM; EC50 (human PILRA G78 on cells [16]): 3.2 nM
B4,,,,16,11.7,10.8,7.41,4.53,2.7,31.6,31.3,21.4,34.6,EC50 (human PILRA G78 on cells [17]): 12 nM; Kd [18]: 263 nM; Kd [19]: 17 nM; Kd [20]: 1.2 nM; Kd [21]: 1.8 nM; Kd [22]: 1.58 nM; EC50 (human PILRA G78 on cells [23]): 12 nM
B5,,,,23,11.4,,10.6,6.19,,28.9,35.5,30.1,41,EC50 (human PILRA R78 on cells [24]): 3.1 nM; Kd [18]: 150 nM; Kd [19]: 25 nM; Kd [20]: 1.4 nM; Kd [21]: 5.3 nM; EC50 (read off the curve) (human PILRA G78 on cells [25]): ~10 nM; Kd [22]: 1.71 nM; EC50 (human PILRA G78 on cells [23]): 12.8 nM
B6,,,,,,,,,,,,,,binding result (hNPDC1(35-181)): binds; binding result (hPANP(76-178)): binds
B7,,,,,,,,,,,,,,EC50 (human PILRB on cells): 1.2 nM

# — patent US20260109763A1 (DENALI THERAPEUTICS, published 2026)
